In patent US20260008852A1:

Target: B7-H3 on CHO-K1 cells stably transfected with B7-H3 (GenScript #M00536) (UniProt Q5ZPR3)
Assay: cell-based or functional assay

Sequence of B7-H3 on CHO-K1 cells stably transfected with B7-H3 (GenScript #M00536) (Q5ZPR3 29-534 limits assumed): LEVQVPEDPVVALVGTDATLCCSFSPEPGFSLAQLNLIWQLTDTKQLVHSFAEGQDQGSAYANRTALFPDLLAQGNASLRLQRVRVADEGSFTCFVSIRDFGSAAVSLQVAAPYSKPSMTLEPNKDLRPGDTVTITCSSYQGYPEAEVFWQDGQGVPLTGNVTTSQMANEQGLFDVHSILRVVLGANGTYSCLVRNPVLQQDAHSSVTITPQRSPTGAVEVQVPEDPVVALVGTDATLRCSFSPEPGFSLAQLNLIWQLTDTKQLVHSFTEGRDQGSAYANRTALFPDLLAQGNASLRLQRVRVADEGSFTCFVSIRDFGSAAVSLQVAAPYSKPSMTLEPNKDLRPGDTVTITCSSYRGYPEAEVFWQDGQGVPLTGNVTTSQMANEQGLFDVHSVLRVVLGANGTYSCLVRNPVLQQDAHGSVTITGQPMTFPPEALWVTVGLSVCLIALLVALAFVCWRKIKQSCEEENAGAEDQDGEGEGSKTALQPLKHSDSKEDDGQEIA

ADCC reporter assay, EC50 Value, CHOK1/B7-H3 cells: 4.55 µg/mL
ADCC reporter assay, Max RLU, CHOK1/B7-H3 cells: 162000 RLU
Substance: Benchmark MGA-271 (antibody)
